{"source": "patent US20150104466A1", "about": "“CYTOMEGALOVIRUS DISINTEGRIN-LIKE PEPTIDES” (priority 2013, published 2015)", "molecules": {"B1": {"name": "gBDLD: amino acids 57-146 of HCMV AD169 glycoprotein B disintegrin-like domain, His-tagged, expressed in E. coli (protein)", "chain": "VTSSEAVSHRANETIYNTTLKYGDVVGVNTTKYPYRVCSMAQGTDLIRFERNIICTSMKPINEDLDEGIMVVYKRNIVAHTFKVRVYQKV", "modifications": "left off: small tags and cut ends", "notes": "amino acids 57-146 of HCMV AD169 glycoprotein B disintegrin-like domain, His-tagged, expressed in E. coli"}}, "key": {"[1]": {"target": "Normal human dermal fibroblasts", "test": "Protein binding assay: gBDLD binding to human fibroblasts (His-tag ELISA)", "experimental": "Normal human dermal fibroblasts were chilled to 4° C., washed three times with cold MES buffer and blocked with 1 mg/mL bovine serum albumin (BSA) for 30 minutes at 4° C. Unbound BSA was removed with cold MES washes (×4). The indicated amounts of gBDLD were added to each well for 90 minutes at 4° C. Cells were then washed three times with cold MES, twice with cold (phosphate-buffered saline (PBS) and fixed with 3% paraformaldehyde. An ELISA was then performed probing with anti-His rabbit polyclonal antibody (Santa Cruz Biotechnology, Santa Cruz, Calif.) and anti-rabbit HRP (Pierce). Absorbance was measured at 405 nm.\nFIG. 7 is a graph depicting the results of a gBDLD binding assay (performed as described previously). Here, binding was measured by absorbance at 405 nm. […] To generate the data, human fibroblasts were incubated with gBDLD for the indicated times at 4° C. Cells were then washed, fixed and an ELISA was performed probing for the gBDLD […] his-tag. […]\nFIG. 8 is a graph depicting gBDLD binding to human fibroblasts. As is readily apparent from FIG. 8, this binding is dose-dependent and saturable. […] After three IVIES washes and two PBS washes, cells were fixed in 3% paraformaldehyde and a His-tag ELISA was performed to quantitate gBDLD bound to cells."}, "NHDF cells": {"test_system": "NHDF cells", "test": "Cytoskeletal rearrangement in NHDF cells (actin staining with phalloidin)", "type": "cell-based, human", "settings": "compared to buffer alone", "excerpt": "gBDLD Triggers Cytoskeletal Rearrangements: β1 integrins are known inducers of broad signal transduction events. […] To test the role of gBDLD in mediating signaling events, we stimulated NHDF cells with buffer alone, gBDLD, or a known cytoskeletal reorganizer (EGF), followed by actin staining with phalloidin."}, "diI-labeled HCMV": {"test_system": "diI-labeled HCMV", "type": "cell-based, Human cytomegalovirus", "settings": "gBDLD or BSA 320 μg/mL, soluble heparin 50 μg/mL; 24 hours post-infection"}, "[2]": {"test": "Solubility of gBDLD in MES buffer", "type": "physicochemical", "settings": "55 mM MES, pH 5.5, 300 mM NaCl", "experimental": "DNA sequence corresponding to amino acids 57-146 of HCMV AD169 glycoprotein B disintegrin-like domain (“gBDLD”) was cloned into the bacterial expression vector pET-28a containing an N-terminal His-Tag with thrombin cleavage site and kanamycin resistance. (Commercially available from Novagen, San Diego, Calif.) gBDLD production was induced by the addition of 1 mM isopropyl-βD-thiogalactopyranoside (IPTG). E. coli Tuner strain containing pET-28a:gBDLD was grown at 37° C. in Luria-Bertani medium containing kanamycin (50 μg/mL) to an optical density at 600 nm of approximately 0.6. IPTG (1 mM) was added and the plates were incubated continuously for 4 h at 37° C. Cells were harvested by centrifugation at 4000 r/min for 10 min and pellets were resuspended in 1% Triton X-100/Ni-NTA buffer (300 mM NaCl/50 mM Tris-HCL pH 7.9) and lysed by 3×60 s bursts of sonication. The lysate was centrifuged at 15,000 r/min for 15 minutes at 4° C. The 8M urea/Ni-NTA fraction was then poured into a chromatography column containing nickel-nitriloacetic acid agarose (Ni-NTA) beads at 4° C. and allowed to flow through. […] Fractions containing protein were determined by measuring the absorbance of each fraction at 214 nm. Fractions that corresponded to absorption peaks were analyzed by sodium dodecyl sulfate polyacrylamide electrophoresis (SDS-PAGE) to determine the size of the protein. […]"}, "β1 integrin": {"target": "T1, β1 integrin (Homo sapiens, UniProt P05556)", "T1 construct": "endogenous in cells; host or cells: Normal Human Dermal Fibroblasts (NHDF), 1% TX-100 lysate", "T1 sequence (P05556 21-798)": "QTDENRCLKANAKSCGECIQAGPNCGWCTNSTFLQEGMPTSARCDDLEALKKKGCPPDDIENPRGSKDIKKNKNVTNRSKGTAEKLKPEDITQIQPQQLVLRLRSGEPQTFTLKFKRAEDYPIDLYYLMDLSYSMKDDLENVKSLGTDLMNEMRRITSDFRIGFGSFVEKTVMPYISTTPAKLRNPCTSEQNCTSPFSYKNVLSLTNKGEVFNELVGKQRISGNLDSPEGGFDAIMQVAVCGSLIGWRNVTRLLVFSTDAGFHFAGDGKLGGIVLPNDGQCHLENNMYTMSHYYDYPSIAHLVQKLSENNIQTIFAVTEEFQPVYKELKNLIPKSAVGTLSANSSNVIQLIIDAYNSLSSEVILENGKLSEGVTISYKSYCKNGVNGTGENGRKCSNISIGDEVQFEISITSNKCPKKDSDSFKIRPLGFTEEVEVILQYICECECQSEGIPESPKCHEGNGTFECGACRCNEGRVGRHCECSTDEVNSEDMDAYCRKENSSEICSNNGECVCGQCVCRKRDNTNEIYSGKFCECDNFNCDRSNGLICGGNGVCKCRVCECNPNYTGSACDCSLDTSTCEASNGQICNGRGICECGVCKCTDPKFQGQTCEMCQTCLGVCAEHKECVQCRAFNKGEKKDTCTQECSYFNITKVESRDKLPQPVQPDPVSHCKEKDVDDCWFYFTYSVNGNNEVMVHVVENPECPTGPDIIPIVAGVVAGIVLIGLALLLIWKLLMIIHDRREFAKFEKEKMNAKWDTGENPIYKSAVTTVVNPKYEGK", "test": "Integrin co-immunoprecipitation assay, Western blot for β1 integrin", "type": "binding", "settings": "human fibroblast lysates, nickel beads", "experimental": "(§1) A T-175 flask of NHDFs was grown to complete confluence, washed three times in MES buffer and lysed in 1 mL MES buffer+1% TX-100 (a detergent). Lysate was spun at 10,000 g for 10 minutes to remove cell debris. Cell lysate (350 μL) was then incubated with 20 μg gBDLD for 4 hours at 4° C. The lysate+gBDLD mixture was then incubated with 50 μL Ni beads overnight at 4° C. Nickel beads were then washed three times and protein eluted by boiling and then adding reducing SDS-PAGE buffer. Proteins were separated by SDS-PAGE and Western blotted for β1 integrin (Chemicon-1965) or β3 (Chemicon) as previously described.^48\n(§2) To identify the cellular receptor for gBDLD we performed co-immunoprecipitation studies. Briefly, gBDLD was incubated with human fibroblast lysates and pulled down with nickel-conjugated agarose beads.\n(§3) Because gBDLD contains a known β1 integrin binding motif, gBDLD bound to its cellular receptor was isolated by SDS-PAGE and then Western blotted for either β1 or β3 integrin. The resulting gels are shown in FIG. 10 (β1) and FIG. 11 (β3)."}, "β3 integrin": {"target": "T2, β3 integrin (Homo sapiens, UniProt P05106)", "T2 construct": "endogenous in cells; host or cells: Normal Human Dermal Fibroblasts (NHDF), 1% TX-100 lysate", "T2 sequence (P05106 27-788)": "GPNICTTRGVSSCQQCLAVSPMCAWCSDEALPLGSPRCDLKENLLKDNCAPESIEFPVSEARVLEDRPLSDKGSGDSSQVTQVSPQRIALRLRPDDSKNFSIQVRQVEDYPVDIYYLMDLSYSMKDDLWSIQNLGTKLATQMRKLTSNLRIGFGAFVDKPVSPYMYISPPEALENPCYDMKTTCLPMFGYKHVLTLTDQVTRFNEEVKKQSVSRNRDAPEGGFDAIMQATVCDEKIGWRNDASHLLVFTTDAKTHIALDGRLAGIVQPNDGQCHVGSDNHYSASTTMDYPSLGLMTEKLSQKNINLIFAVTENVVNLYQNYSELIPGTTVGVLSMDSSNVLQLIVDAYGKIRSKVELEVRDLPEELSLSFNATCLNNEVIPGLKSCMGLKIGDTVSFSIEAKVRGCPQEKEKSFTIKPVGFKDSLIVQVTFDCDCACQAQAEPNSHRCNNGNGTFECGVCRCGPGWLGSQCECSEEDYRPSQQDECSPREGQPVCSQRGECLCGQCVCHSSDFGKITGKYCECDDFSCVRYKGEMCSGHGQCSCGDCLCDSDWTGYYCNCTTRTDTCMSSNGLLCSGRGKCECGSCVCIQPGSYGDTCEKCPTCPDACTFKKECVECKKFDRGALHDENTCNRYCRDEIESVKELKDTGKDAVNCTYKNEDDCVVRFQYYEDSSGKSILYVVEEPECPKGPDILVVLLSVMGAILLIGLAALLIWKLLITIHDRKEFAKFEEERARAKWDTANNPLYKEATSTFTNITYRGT", "T2 sequence (P06756 31-889 partner limits assumed)": "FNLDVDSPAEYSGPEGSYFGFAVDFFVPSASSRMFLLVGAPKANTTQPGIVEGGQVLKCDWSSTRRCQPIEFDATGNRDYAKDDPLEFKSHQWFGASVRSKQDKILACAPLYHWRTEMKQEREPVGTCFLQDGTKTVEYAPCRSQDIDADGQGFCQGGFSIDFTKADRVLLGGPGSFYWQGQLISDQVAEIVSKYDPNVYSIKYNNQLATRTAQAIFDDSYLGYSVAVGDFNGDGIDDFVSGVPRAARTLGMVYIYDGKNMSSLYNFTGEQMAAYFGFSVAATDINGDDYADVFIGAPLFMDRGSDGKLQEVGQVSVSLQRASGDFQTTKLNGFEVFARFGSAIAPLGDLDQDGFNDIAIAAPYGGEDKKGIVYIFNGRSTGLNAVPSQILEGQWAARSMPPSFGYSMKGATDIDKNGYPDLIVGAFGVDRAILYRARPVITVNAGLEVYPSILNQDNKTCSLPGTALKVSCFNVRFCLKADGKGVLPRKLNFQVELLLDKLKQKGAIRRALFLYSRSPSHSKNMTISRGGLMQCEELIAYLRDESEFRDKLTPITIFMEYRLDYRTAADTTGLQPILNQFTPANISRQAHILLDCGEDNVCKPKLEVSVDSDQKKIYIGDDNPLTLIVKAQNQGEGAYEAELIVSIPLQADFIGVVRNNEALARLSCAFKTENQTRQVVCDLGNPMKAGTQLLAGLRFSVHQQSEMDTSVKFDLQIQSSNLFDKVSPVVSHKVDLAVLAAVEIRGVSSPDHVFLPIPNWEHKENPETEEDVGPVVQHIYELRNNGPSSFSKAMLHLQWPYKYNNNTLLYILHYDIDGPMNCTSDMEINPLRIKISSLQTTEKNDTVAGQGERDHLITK", "T2 sequence (P06756 891-1048 partner limits assumed)": "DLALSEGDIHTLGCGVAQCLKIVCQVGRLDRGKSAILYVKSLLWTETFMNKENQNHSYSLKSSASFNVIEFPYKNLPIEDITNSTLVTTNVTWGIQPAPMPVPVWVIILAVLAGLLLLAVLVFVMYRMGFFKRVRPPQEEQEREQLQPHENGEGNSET", "test": "Integrin co-immunoprecipitation assay, Western blot for β3 integrin", "type": "binding", "settings": "human fibroblast lysates, nickel beads", "experimental": "as §1, §2, §3"}}}
{"molecule": "B1", "values": [{"measurement": "kinetics of gBDLD binding to human fibroblasts", "setting": "[1]; 4° C., absorbance at 405 nm", "value": "rapid kinetics"}, {"measurement": "concentration at which binding to fibroblast monolayers reached saturation", "setting": "[1]; 60 minutes, after BSA blocking", "value": 12.5, "unit": "µg/mL"}, {"measurement": "reorganization of the cytoskeleton", "setting": "NHDF cells", "value": "triggered a dramatic reorganization of the cytoskeleton"}, {"measurement": "block of HCMV fusion and gene expression", "setting": "diI-labeled HCMV", "value": "complete block of HCMV fusion and gene expression"}, {"measurement": "Solubility", "setting": "[2]", "value": "approximately 1 mg/mL"}, {"measurement": "interaction with β1 integrin (pull down)", "setting": "β1 integrin", "value": "interacts with β1 integrins"}, {"measurement": "interaction with β3 integrin (pull down)", "setting": "β3 integrin", "value": "does not interact with β3 integrins"}]}
